Source: the supplement of paper PMC9170038

Experiments:
MS2 coat protein [1] = test: apparent KD of MS2 coat protein, switch ON state; designed switch direction (-1 OFF switch, 1 ON switch): 1; higher = weaker reporter binding; details: FMN input: 0 or 200 uM; Eterna round: R93 (includes R88 designs)
How it was run: (§1)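 The designed RNA switches were transcribed on-chip from Illumina sequencing clusters. In 100 mM Tris-HCl pH 7.5, 80 mM KCl and 4 mM MgCl2, without or with constant ligand, they were titrated with SNAP-549-labelled MS2 coat protein from 0.7 or 1.5 nM to 3 µM in twofold steps. Apparent KD is the per-design median of normalised cluster binding-curve fits.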

MS2 coat protein [2] = test: apparent KD of MS2 coat protein, switch OFF state (with FMN for OFF switches, without FMN for ON switches); designed switch direction (-1 OFF switch, 1 ON switch): 1; higher = weaker reporter binding; details: FMN input: 0 or 200 uM; Eterna round: R93 (includes R88 designs)
How it was run: as §1

| Sequence | apparent KD of MS2 coat protein (MS2 coat protein [1]) | apparent KD of MS2 coat protein (MS2 coat protein [2]) |
| --- | --- | --- |
| AAAAAACAUGAGGAUCACCCAUGUCCUCGGACAUGAGGAUAUGUACAGACUUCGGUCUGUACAGAAGGCAUGAAAA [SS1 - 1014] | 713 nM | 756 nM |
| AAAAAACAUGAGGAUCACCCAUGUCCUCGGACAUGAGGAUAUGUACAGACUUCGGUCUGUACAGAAGGCAUGUAAA [SS1 - 1018] | 901 nM | 684 nM |
| AAAAAACAUGAGGAUCACCCAUGUCGAAAGACGUGAGGAUAUGUACAGACUUCGGUCUGUACAGAAGGCACGUAAA [SS1 - 1040] | 14.3 nM | 33.8 nM |
| AAAAAACAUGAGGAUCACCCAUGUCGAAAGACGUGAGGAUAUGUACAGACUUCGGUCUGUACAGAAGGCAUGUAAA [SS1 - 1054] | 146 nM | 1110 nM |
| AAAAAACAUGAGGAUCACCCAUGUCUUCGGACAUGAGGAUAUGUACAGACUUCGGUCUGUACAGAAGGCAUGUAAA [SS1 - 1017] | 323 nM | 61.2 nM |
| AAAAAACAUGAGGAUCACCCAUGUGAAAAUAUGGAAGGAUAUACCGAAAAAAAAAAAAAGGUAGAAGGUCUAAAAA [SS! 1 MT 4] | 23 nM | 32.3 nM |
| AAAAAACAUGAGGAUCACCCAUGUGAGAACAUGGGAGGAUAUACAAGGACGAGAGUCAAAGUAGAAGGCCUAAAAA [Garnet 65] | 155 nM | 29.9 nM |
| AAAAAACAUGAGGAUCACCCAUGUGCAAAAUUCGCAGGAUAUUCCUUUUUUAAAUGGGAGGGAGAAGGGUGUAAAA [Nob's Hobby 19 - Jieux - Same State 1] | 21.9 nM | 34.5 nM |
| AAAAACACGGUGCAGGAUAUAUUAAUAGUCACAUGAGGAUCACCCAUGUUCAUUUAUAUGAACGAGUAGAAGGGCGGUGAAAAAA [Mat - Same state - Malcolm Mod - D112] | 172 nM | 148 nM |
| AAAAAUCCAGCGCAGGAUAUCGCAGGGUGCACAUGAGGAUCACCCAUGUGUACCCAAACACCCUGCGAGAAGGGCGUUGGAAAAAA [SameState-I] | 9.65 nM | 11.1 nM |
| AAAACACAUGAGGAUCACCCAUGUAAAAACAAGGGAGGAUAUGCUUGGAAAACAUGCUAUGCAGAAGGCUCAAGUG [SS1 - 11] | 42.9 nM | 31.1 nM |
| AAAACACAUGAGGAUCACCCAUGUGCCUAAUUCGCAGGAUAUUUCUCGAUUAAAUGAUAGGAAGAAGGGUGAUAAA [Nob's Hobby 36 - Jieux - Same State 1] | 186 nM | 40.9 nM |
| AAAAGACAUGAGGAUCACCCAUGUAAAAACAUGGGAGGAUAUGCAUGGAAAACAUGCUGUGCAGAAGGCUCAUGUC [SS1 - 18] | 40 nM | 25.5 nM |
| AAAAGACAUGAGGAUCACCCAUGUAAAAACGUAGGAGGAUAUGUAUGGAAACCAGACUGUACAGAAGGCCUCUGUC [SS1 - 72] | 22.2 nM | 21.1 nM |
| AAAAUAAAAAGGUAGGAUAUGGGUAAAACUACAUGAGGAUCACCCAUGUAAUAAAAAGAAAAAAACCAGAAGGACCAAAAUAAAA [72%, More Wateronthemoon, 8] | 13.2 nM | 34.7 nM |
| AAACAACAUGAGGAUCACCCAUGUCAAACAAAUCGAGGAUAUGGGCAGGAUUCUUCCUAACUAGAAGGCGAAAACA [Esmatidi] | 164 nM | 29.8 nM |
| AAACCACAUGAGGAUCACCCAUGUAGAAAUAUGGGAGGAUAUACGAAGACGAAAGUCAAAGUAGAAGGCCUAAAAG [saturn 1] | 24.5 nM | 72.4 nM |

| Sequence | apparent KD of MS2 coat protein (MS2 coat protein [1]) | apparent KD of MS2 coat protein (MS2 coat protein [2]) |
| --- | --- | --- |
| AAAGAAGAAAGCGAGGAUAUGGAUGGGUAAACAUGAGGAUCACCCAUGUAUAAGAAAGAAAGAAACCAGAAGGCGCAAAAGAAAA [Khenemmaatre Hakor] | 70 nM | 93.7 nM |
| AAAGACAUGGUGCAGGAUAUAUUAAUAGUCACAUGAGGAUCACCCAUGUUCAUUUAUAUGAACGAGUAGAAGGGCGAUGAAAAAA [SameState2 Malc#7] | 38.4 nM | 38.8 nM |
| AAAUAAAUAAGAGAGGAUAUGUCAGAGAAAACAUGAGGAUCACCCAUGUGAUAAUAAAAAGGGUGACAGAAGGCUCAAAACAAAC [Topaz 52] | 19.9 nM | 59.3 nM |
| AAAUAAAUGACUCAGGAUAUAUCAUAGAAUACAUGAGGAUCACCCAUGUUUUAAUAACAUGUUUGGUAGAAGGGAGUCAAUAAAU [LROPPY Same State 2 - v05_deltaG=1.86] | 25.9 nM | 116 nM |
| AAAUAACAUGAGGAUCACCCAUGUUACAACAAUACAGGAUAUGUGGGUGAAAAUAGCAUGACAGAAGGGUACUGUA [SameState1 Malc#33] | 237 nM | 124 nM |
| AACAAACAUGAGGAUCACCCAUGUAAACAAACAUGAGGAUAUAUAACACAACAUCAACAGAUAGAAGGCAUAAAUA [JR_SS001_Sub1202] | 92.1 nM | 84.8 nM |
| AACAAACAUGAGGAUCACCCAUGUAGAAACAUGGGAGGAUAUACGAAGACGAAAGUCAAAGUAGAAGGCCUAAAAA [Garnet 91] | 69.1 nM | 60.9 nM |
| AACAAUCUAUCUGAGGAUAUCAUAUAAAAGACAUGAGGAUCACCCAUGUAGCAGGAAACUGCAUAUGAGAAGGCAGAUAGAUUGA [SS2: 1121] | 7.5 nM | 10.8 nM |
| AACAAUCUAUCUGAGGAUAUCAUGACAAAGACAUGAGGAUCACCCAUGUGCAGGAAAACUGCUUAUGAGAAGGCAGAUAGAUUGA [SS2: 1113] | 11 nM | 14.6 nM |
| AACAAUCUAUCUGAGGAUAUCAUGUCAAAGACAUGAGGAUCACCCAUGUACCAGGAAACUGGUUAUGAGAAGGCAGAUAGAUUGA [SS2: 1115] | 37.3 nM | 1290 nM |
| AACAAUCUAUCUGAGGAUAUCAUUAAAAAGACAUGAGGAUCACCCAUGUAGCAGGAAACUGCAUAUGAGAAGGCAGAUAGAUUGA [SS2: 1123] | 12.5 nM | 13.9 nM |
| AACAAUCUAUCUGAGGAUAUCAUUUCAAAGACAUGAGGAUCACCCAUGUGCAGGAAAACUGCAAAUGAGAAGGCAGAUAGAUUGA [SS2: 1107] | 10.3 nM | 14.5 nM |
| AACAAUCUAUCUGAGGAUAUGAUGUCAAAGACAUGAGGAUCACCCAUGUGCAGGAAAACUGCAUAUCAGAAGGCAGAUAGAUUGA [SS2: 1103] | 15.6 nM | 18.4 nM |
| AACAAUCUAUCUGAGGAUAUGUGUCAAAAGACAUGAGGAUCACCCAUGUAAAAACAUGAAAAAACACAGAAGGCAGAUAGAUUGA [SS2: 1148] | 41.8 nM | 59.3 nM |
| AACAAUCUAUCUGAGGAUAUGUGUCAAAAGACAUGAGGAUCACCCAUGUAAAAACAUGGGAAAACACAGAAGGCAGAUAGAUUGA [SS2: 1151] | 369 nM | 184 nM |
| AACAAUCUAUCUGAGGAUAUGUGUCGAAAGACAUGAGGAUCACCCAUGUCAAAACAUGGAAAGAUACAGAAGGCAGAUAGAUUGA [SS2: 1158] | 8.33 nM | 11.9 nM |
| AACAAUCUAUCUGAGGAUAUGUGUCGAAAGACAUGAGGAUCACCCAUGUCAAAACAUGGGAAGAUACAGAAGGCAGAUAGAUUGA [SS2: 1159] | 79.9 nM | 417 nM |
